Earlier results, collected in PMC12728182.

How the values were obtained:
[1] = biological target: PAK1 (Homo sapiens) (UniProt Q13153)
[2] = biological target: WASP (Homo sapiens) (UniProt P42768)
[3] = biological target: ACK (Homo sapiens) (UniProt Q07912)
Sequence of ACK (Homo sapiens) (Q07912 whole entry): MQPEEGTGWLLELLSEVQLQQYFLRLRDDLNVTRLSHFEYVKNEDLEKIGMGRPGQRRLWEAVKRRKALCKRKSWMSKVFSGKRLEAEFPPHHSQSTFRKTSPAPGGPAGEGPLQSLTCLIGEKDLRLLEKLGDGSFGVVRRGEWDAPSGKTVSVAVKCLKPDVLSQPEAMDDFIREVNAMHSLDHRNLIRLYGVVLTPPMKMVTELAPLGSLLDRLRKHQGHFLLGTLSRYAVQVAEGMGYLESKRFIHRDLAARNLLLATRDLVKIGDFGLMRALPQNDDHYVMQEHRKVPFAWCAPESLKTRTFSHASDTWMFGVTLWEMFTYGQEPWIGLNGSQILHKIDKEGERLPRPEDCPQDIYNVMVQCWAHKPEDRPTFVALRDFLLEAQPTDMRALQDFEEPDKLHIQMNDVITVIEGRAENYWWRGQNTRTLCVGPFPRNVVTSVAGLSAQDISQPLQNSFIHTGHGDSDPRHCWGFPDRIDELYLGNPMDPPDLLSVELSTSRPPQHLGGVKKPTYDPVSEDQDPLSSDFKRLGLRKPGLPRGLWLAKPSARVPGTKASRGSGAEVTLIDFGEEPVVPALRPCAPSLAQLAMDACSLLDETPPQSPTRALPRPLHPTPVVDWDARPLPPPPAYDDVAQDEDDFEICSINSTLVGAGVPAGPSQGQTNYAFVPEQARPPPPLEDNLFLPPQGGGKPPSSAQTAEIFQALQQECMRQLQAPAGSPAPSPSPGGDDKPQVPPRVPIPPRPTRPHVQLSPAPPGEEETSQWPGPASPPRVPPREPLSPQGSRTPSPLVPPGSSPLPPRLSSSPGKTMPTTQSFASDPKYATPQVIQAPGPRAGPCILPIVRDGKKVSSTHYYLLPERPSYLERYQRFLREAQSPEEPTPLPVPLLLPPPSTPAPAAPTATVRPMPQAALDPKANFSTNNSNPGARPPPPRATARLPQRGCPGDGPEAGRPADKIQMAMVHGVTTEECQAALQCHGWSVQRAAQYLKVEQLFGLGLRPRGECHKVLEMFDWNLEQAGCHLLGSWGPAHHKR

Sequence of Cdc42 (P60953 1-188): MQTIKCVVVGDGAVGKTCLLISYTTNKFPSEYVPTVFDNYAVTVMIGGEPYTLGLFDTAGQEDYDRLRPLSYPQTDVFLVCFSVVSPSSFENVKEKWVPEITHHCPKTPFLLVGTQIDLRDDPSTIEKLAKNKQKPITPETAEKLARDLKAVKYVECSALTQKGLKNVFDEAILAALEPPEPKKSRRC
Sequence of WASP (Homo sapiens) (P42768 2-502): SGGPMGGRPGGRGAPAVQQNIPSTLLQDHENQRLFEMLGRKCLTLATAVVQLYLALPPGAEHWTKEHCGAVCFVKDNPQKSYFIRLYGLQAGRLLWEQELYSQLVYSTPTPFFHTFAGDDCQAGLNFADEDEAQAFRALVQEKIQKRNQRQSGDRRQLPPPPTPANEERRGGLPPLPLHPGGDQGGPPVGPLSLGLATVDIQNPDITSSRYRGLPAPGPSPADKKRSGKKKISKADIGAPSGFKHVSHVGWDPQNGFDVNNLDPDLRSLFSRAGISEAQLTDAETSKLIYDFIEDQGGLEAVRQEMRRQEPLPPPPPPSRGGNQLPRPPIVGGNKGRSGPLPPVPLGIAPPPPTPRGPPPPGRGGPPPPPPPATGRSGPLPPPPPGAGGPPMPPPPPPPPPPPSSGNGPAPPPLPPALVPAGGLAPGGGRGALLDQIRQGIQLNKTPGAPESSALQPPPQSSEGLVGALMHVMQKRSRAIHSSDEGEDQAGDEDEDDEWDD
Sequence of PAK1 (Homo sapiens) (Q13153 2-545): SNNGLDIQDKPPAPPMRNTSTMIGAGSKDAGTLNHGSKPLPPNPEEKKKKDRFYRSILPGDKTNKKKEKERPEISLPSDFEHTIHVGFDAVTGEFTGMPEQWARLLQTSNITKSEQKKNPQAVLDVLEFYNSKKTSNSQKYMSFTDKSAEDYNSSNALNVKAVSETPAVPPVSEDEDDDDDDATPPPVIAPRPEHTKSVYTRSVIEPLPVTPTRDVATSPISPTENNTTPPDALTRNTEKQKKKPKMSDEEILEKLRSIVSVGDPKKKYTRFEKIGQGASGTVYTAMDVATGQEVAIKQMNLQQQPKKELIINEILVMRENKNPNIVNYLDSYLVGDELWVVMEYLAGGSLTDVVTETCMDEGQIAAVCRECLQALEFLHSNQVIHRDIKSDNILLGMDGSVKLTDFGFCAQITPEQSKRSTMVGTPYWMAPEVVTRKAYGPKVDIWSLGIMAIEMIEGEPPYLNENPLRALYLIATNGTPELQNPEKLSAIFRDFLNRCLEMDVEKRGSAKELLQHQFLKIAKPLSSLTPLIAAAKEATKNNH

Cdc42 (from UniProt P60953)
Kd [1]: 0.62 µM
Kd [2]: 0.055 µM
Kd [3]: 0.77 µM
